T1: wild-type adenovirus type 5 (Ad5) fiber protein (human adenovirus type 5, UniProt P11818 1-581)
T1 construct: also called type 5 fiber protein; recombinant Ad5 fiber
T1 sequence: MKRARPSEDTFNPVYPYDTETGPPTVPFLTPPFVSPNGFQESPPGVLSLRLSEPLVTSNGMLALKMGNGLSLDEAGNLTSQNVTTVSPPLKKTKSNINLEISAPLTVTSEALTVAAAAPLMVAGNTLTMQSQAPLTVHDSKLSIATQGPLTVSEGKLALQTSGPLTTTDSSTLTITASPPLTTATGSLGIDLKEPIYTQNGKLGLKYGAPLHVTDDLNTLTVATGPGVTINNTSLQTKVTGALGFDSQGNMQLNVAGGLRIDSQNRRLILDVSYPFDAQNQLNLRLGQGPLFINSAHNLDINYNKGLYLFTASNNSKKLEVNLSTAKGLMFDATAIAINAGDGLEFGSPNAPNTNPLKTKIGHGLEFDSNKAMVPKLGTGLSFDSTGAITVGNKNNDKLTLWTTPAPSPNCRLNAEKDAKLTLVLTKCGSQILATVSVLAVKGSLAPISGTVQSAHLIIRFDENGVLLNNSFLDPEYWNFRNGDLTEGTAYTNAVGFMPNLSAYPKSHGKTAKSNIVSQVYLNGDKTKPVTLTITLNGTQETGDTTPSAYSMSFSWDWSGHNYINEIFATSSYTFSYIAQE

B1: Ad5 penton base protein (in the capsid of Ad5.βgal.ΔF / Ad5 vector particles) (other)
chain: MRRAAMYEEGPPPSYESVVSAAPVAAALGSPFDAPLDPPFVPPRYLRPTGGRNSIRYSELAPLFDTTRVYLVDNKSTDVASLNYQNDHSNFLTTVIQNNDYSPGEASTQTINLDDRSHWGGDLKTILHTNMPNVNEFMFTNKFKARVMVSRLPTKDNQVELKYEWVEFTLPEGNYSETMTIDLMNNAIVEHYLKVGRQNGVLESDIGVKFDTRNFRLGFDPVTGLVMPGVYTNEAFHPDIILLPGCGVDFTHSRLSNLLGIRKRQPFQEGFRITYDDLEGGNIPALLDVDAYQASLKDDTEQGGGGAGGSNSSGSGAEENSNAAAAAMQPVEDMNDHAIRGDTFATRAEEKRAEAEAAAEAAAPAAQPEVEKPQKKPVIKPLTEDSKKRSYNLISNDSTFTQYRSWYLAYNYGDPQTGIRSWTLLCTPDVTCGSEQVYWSLPDMMQDPVTFRSTRQISNFPVVGAELLPVHSKSFYNDQAVYSQLIRQFTSLTHVFNRFPENQILARPPAPTITTVSENVPALTDHGTLPLRNSIGGVQRVTITDARRRTCPYVYKALGIVSPRVLSSRTF
notes: The assays used whole virions; also called fiberless adenovector (penton base at the vertices)
B2: chimeric 5T3H fiber protein (Ad5 fiber tail and shaft with the Ad3 fiber knob) (other)
chain: MKRARPSEDTFNPVYPYDTETGPPTVPFLTPPFVSPNGFQESPPGVLSLRLSEPLVTSNGMLALKMGNGLSLDEAGNLTSQNVTTVSPPLKKTKSNINLEISAPLTVTSEALTVAAAAPLMVAGNTLTMQSQAPLTVHDSKLSIATQGPLTVSEGKLALQTSGPLTTTDSSTLTITASPPLTTATGSLGIDLKEPIYTQNGKLGLKYGAPLHVTDDLNTLTVATGPGVTINNTSLQTKVTGALGFDSQGNMQLNVAGGLRIDSQNRRLILDVSYPFDAQNQLNLRLGQGPLFINSAHNLDINYNKGLYLFTASNNSKKLEVNLSTAKGLMFDATAIAINAGDGLEFGSPNAPNTNPLKTKIGHGLEFDSNKAMVPKLGTGLSFDSTGAITVGNKNNDKLTLWTGPKPEANCIIEYGKQNPDSKLTLILVKNGGIVNGYVTLMGASDYVNTLFKNKNVSINVELYFDATGHILPDSSSLKTDLELKYKQTADFSARGFMPSTTAYPFVLPNAGTHNENYIFGQCYYKASDGALFPLEVTVMLNKRLPDSRTSYVMTFLWSLNAGLAPETTQATLITSPFTFSYIREDD

Assay [1] concerns the target B2. Description: fiber-deleted vector grown in 644 cells.
Assay [2] addresses T1, wild-type adenovirus type 5 (Ad5) fiber …. Briefly: Western blot of particles purified from 633 cells. A general note: Immunoblotting shows a protein as a band on a membrane.
For another assay, the target named is Ad3 receptor. Briefly: cell-based or functional assay.

As to B1, the binding result in assay [1] and in assay [2] was “binds” in each case.

As to B2, the “infection of EBV-transformed lymphoblastoid cell lines (X-gal stained cells)” value with Ad3 receptor was not below 10 fold.
